According to paper PMC6023938, “Global pairwise RNA interaction landscapes reveal core features of protein recognition”:

Target: T1, TUT7 RNA-binding region (Homo sapiens, UniProt Q5VYS8 1362-1452)
T1 sequence: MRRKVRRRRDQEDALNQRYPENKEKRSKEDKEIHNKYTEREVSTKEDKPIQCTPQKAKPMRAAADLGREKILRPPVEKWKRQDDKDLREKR
Assay: fluorescence polarization; FP: 45 mM Tris-HCl pH 8.0, 90 mM NaCl, 0.2% Tween-20, 22 C, 60 min, 30 ul
Conditions: protein: recombinant; tags: GST fusion (expressed in BL21 codon plus); label: 5' Cy5

B1: top scoring Hamiltonian sequence for TUT7 (ssRNA)
RNA: GCAGUCUUAACGCUGCCUUA
- binding result: binds
